The results in this text go back to US20030166021A1 (WISTAR INSTITUTE OF ANATOMY AND BIOLOGY, published 2003).

Ends that are not written are not given here.

Assay [1] addresses T1, LexA-MB1 fusion protein (human c-Myc Myc box 1 peptide, amino acids 47-62) (human).
T1 construct: also called MB1 bait; lexA-MB1 peptide construct
As to the kind of experiment: yeast two hybrid, mating test with LexA baits.

The target in assay [2] is T2, small GTP-binding protein RhoB test bait (UniProt P62745 1-196, limits assumed).
T2 construct: Negative control bait in the two hybrid mating test
T2 sequence (P62745 whole entry): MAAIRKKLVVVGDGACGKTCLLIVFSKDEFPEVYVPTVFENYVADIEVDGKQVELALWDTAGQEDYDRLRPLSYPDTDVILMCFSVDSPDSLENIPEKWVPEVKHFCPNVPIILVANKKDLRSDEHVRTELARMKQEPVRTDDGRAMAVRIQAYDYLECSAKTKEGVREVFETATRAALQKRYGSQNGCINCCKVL
The experiment in a line: yeast two hybrid mating test with negative control baits.

Assay [3] has as its target T3, protein kinase C (PKC) peptide FTRHPPVLTPPDQEVI test bait (rat, also: fused to LexA DNA binding domain (order, linker not given here)).
T3 construct: Negative control bait in the two hybrid mating test; also called peptide derived from rat protein kinase Cβ2
T3 chain: FTRHPPVLTPPDQEVI
Described as above.

The target of another assay is Max (UniProt P61244 1-160, limits assumed). The experiment in a line: GST pull-down.
Max, sequence (P61244 whole entry): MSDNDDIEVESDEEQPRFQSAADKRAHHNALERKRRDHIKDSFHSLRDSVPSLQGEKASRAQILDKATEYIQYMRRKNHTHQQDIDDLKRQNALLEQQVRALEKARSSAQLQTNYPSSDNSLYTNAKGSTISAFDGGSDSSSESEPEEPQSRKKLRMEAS
The next assay concerns the target T4, cell cycle protein p107 (UniProt P28749 1-1068, limits assumed).
T4 sequence (looked up): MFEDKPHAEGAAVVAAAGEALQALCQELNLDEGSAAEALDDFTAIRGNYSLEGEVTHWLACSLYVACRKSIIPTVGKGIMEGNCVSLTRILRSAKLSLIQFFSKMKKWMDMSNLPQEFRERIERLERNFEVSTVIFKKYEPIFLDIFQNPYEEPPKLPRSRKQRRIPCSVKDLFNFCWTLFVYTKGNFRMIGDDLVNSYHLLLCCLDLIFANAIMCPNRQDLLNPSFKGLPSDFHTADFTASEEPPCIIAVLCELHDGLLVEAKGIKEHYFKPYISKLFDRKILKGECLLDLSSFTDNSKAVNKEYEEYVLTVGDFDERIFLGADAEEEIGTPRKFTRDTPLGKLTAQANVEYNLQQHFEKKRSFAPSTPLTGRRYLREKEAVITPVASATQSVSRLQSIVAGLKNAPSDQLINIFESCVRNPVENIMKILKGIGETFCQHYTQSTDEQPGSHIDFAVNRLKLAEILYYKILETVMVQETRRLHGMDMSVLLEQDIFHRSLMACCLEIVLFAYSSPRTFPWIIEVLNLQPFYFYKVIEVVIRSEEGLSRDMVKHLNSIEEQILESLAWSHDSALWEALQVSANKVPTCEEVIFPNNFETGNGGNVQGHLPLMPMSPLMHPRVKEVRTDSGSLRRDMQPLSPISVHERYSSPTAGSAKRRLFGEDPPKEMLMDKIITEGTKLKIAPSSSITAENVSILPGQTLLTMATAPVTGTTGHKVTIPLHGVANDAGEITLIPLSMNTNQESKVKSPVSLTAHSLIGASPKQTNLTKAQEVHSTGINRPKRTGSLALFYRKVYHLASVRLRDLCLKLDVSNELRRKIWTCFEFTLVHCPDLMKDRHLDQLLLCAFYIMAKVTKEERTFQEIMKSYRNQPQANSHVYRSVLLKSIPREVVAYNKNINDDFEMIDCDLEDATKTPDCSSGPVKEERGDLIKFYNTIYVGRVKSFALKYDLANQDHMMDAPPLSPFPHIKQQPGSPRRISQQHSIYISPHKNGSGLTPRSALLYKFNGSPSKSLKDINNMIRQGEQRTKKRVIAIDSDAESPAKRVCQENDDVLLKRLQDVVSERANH
The experiment in a line: GST pull-down.

For assay [4], the target named is transcription factor YY 1 (UniProt P25490 1-414, limits assumed). As to the kind of experiment: GST pull-down.
transcription factor YY 1, sequence (P25490 whole entry): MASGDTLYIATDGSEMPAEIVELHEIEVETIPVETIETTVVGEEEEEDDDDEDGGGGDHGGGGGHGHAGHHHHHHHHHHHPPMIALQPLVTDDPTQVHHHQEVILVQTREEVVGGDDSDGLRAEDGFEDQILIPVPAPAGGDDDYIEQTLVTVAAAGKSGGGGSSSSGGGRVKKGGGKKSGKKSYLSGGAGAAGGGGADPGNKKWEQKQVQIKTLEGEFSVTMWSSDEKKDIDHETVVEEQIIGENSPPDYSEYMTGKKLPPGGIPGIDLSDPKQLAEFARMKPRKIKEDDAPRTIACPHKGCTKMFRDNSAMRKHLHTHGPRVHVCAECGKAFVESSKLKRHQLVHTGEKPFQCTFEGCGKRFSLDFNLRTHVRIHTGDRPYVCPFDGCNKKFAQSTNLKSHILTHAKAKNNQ
Assay [5] deals with extracellular protein PAI-1 (UniProt P05121 24-402, limits assumed). The experiment in a line: GST pull-down.
extracellular protein PAI-1, sequence (P05121 24-402 limits assumed): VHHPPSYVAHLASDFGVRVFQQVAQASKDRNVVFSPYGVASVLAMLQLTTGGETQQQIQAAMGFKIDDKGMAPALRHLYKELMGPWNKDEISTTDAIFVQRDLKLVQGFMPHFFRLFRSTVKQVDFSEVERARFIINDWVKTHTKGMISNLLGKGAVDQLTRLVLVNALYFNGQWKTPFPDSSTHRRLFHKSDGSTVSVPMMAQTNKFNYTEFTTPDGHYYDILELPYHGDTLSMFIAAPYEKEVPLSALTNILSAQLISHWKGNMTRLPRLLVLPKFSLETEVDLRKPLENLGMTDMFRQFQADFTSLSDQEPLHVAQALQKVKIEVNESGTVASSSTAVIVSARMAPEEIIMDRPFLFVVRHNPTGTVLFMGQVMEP
Assay [6] concerns the target small GTP-binding protein RhoB (tested for GST-ATG99 interaction) (UniProt P62745 1-196, limits assumed). As to the kind of experiment: GST pull-down.
The target in assay [7] is T5, c-Myc with both MB1 (49-101) and MB2 (120-140) deletions (human, UniProt P01106 1-48; P01106 102-119; P01106 141-439).
T5 construct: range 1-48; also called CMV Hm subclone containing both deletions
T5 sequence (P01106 other isoform, or with tags, fused parts or gaps limits assumed): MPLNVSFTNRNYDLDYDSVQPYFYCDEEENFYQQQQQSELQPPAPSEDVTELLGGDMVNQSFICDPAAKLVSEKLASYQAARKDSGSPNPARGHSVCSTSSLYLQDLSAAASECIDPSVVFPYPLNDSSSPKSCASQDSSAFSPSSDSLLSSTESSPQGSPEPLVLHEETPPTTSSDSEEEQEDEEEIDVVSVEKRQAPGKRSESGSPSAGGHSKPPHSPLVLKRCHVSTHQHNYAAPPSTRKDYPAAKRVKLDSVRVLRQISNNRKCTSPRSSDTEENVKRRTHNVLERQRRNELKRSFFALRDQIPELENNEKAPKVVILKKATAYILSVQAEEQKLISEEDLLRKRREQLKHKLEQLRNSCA
As to the kind of experiment: GST pull-down of 35S-labelled IVT protein.

In assay [8] the target is T6, SV40 large T antigen (vector pTag) (SV40, UniProt P03070 1-708).
T6 construct: 35S-labelled in vitro translated protein
The experiment in a line: GST pull-down of 35S-labelled IVT protein.

The target of the next assay is T7, USF (vector CMV-USF) (UniProt P22415 1-310, limits assumed).
T7 construct: 35S-labelled in vitro translated protein
T7 sequence (P22415 whole entry): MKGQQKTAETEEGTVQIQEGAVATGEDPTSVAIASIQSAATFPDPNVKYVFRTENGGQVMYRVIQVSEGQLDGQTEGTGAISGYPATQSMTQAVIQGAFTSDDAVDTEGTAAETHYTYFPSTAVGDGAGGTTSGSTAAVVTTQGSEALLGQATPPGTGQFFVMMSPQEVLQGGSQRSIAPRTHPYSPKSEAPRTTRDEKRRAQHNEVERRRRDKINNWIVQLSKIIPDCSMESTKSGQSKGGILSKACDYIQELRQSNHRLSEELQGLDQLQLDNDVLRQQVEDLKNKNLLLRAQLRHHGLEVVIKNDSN
As to the kind of experiment: GST pull-down of 35S-labelled IVT protein.

small GTP-binding protein RhoB (tested for GST-ATG99 interaction), sequence (P62745 whole entry): as the sequence (P62745 whole entry) above

B1: murine Bin1 135 amino acid polypeptide (clone #99 ORF) as VP16 fusion from the two hybrid cDNA library (other)
chain: EIRVNHEPEPASGASPGAAIPKSPSQPAEASEVVGGAQEPGETAASEATSSSLPAVVVETFSATVNGAVEGSAGTGRLDLPPGFMFKVQAQHDYTATDTDELQLKAGDVVLVIPFQNPEEQDEGWLMGVKESD
notes: Prey of the yeast two hybrid screen
For B1, the binding result in assay [1] is on record as “binds”; in [2], “no binding”; in [3] it was “no binding”.

B2: GST-ATG99 polypeptide (glutathione-S-transferase fusion of the 135 aa murine Bin1 polypeptide) (other)
chain: B1 chain
notes: Expressed in E. coli, purified on glutathione-Sepharose; not shown: glutathione-S-transferase of vector pGEX-2T (Pharmacia); 15 amino acid N-terminal extension with initiator methionine (3 amino acids from E47 and 12 amino acids from VP16); lett
Turning to B2, the binding result (with Max; with cell cycle protein p107; in assay [4]; in assay [5]; in assay [6]; in assay [7]) was “no binding” throughout. Moreover, the binding result (in assay [8]; in the assay with USF (vector CMV-USF)) was “no binding” in each case.
